Measurements published in patent US20110262445A1 (CEPHALON AUSTRALIA, published 2011).
Substitutions are numbered along the chain they refer to. In names and notes the source's numbering stands. Where two headings read alike, the source gives them in different places. Values belong to the binder of their own block, whether it stands above or below them.

How the values were obtained:
[1] = biological target: T1, human IL-23 (human, UniProt P29460 23-328; Q9NPF7 20-189); experiment: ELISA, coated IL-23
T1 construct: Recombinant (Ebioscience); HIS-tagged in flow cytometry, biotinylated in some assays; also called hIL-23; rhIL-23
T1 sequence 1: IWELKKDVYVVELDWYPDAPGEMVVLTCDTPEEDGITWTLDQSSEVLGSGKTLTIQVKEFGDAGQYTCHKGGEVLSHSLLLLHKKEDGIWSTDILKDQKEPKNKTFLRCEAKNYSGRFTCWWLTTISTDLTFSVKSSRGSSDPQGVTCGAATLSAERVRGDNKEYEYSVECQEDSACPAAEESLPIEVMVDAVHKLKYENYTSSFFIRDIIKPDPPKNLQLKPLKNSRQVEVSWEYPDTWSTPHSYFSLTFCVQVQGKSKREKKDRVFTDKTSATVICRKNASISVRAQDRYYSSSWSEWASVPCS
T1 sequence 2: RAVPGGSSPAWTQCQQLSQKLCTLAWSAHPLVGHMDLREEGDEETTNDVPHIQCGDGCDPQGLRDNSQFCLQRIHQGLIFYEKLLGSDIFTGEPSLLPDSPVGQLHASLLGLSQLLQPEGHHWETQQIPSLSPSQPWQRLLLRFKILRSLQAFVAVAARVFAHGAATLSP
Method in brief: (§1)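 Cytokine at 1 μg/mL in carbonate buffer pH 9.6 was coated overnight at 4° C onto Maxisorp plates and blocked with 1% BSA in PBS for 1 hour at 25° C. Antibody titrations were bound for 1 hour at 25° C, then detected with goat anti-human IgG or anti-murine immunoglobulin HRP (1:2000, 1 hour). TMB was developed and stopped with 1M HCl. The binding result is absorbance at 450 nm (reference 620 nm).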

[2] = biological target: T2, human IL-12 (human, UniProt P29460 23-328; P29459 23-219); experiment: ELISA, coated IL-12
T2 construct: Recombinant (Peprotech); FLAG-tagged IL-12 in the flow cytometry assays, biotinylated in the IL-12Rβ2 assay; also called hIL-12
T2 sequence 1: T1 sequence 1
T2 sequence 2: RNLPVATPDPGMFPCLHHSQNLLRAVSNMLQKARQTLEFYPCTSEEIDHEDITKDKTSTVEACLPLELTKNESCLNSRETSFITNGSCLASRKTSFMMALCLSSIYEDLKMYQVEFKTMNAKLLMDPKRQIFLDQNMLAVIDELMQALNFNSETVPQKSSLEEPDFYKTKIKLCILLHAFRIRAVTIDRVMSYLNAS
Method in brief: as §1

[3] = biological target: T1, human IL-23; experiment: SPR, IgG on Protein A
Procedure: (§2) Using a SPR 3000, Protein A was immobilized onto FC1 and FC2 (or alternatively FC3 and FC4) of a CM5 research grade sensor chip using amine coupling, giving approximately […] RU. FC1 was used a blank throughout the experiments. The experiments were run in HBS-P buffer (SPR). At a flow rate of 20 μl/min, 20 μl of 5 μg/mL of antibody was passed over FC2. IL-12, IL-23 or IL-12p40 (Peprotech) were passed over the surface of FC1 and FC2 at concentrations ranging from 66 nM to 2 nM. Regeneration of the surface was performed using 10 mM Glycine, pH 1.0. The sensorgram data from FC2 was subtracted from FC1 and a buffer only control. The curves were fitted using a 1:1 Langmuir equation to generate the kd, ka and KD values. All curves were fitted with a χ² of less then 2.0 where possible.

[4] = biological target: T2, human IL-12; experiment: SPR, IgG on Protein A
Procedure: as §2

[5] = biological target: T1, human IL-23; experiment: ELISA, coated IL-23; remark: listed apart in the source
Procedure: This cysteine at the start of CDR3 could be oxidized, causing heterogeneity in any resulting antibody product. It could also form complexes by disulphide bond formation. Therefore, each of the other 18 (the exceptions being the original Cys and Trp) amino acids was substituted in this position using gene synthesis, and the antibodies were expressed transiently (Antibodies 5, 6, 7, 8, 9, 10, 11, 12, 13, 14, 15, 16, 17, 18, 19, 20, 21, 22). An ELISA was performed on these antibodies (FIG. 9). Some of the antibodies retained binding activity for both IL-12 and IL-23, others only for one cytokine or the other, while others minimally bound to either cytokine.
IL-12 (Peprotech), IL-23 (Ebioscience™), IL-12p40 (Ebioscience™) or IL-12p80 (Peprotech), was diluted to 1 μg/mL in carbonate coating buffer ([…] pH 9.6) and coated onto a 96 well plate (Nunc™, Maxisorp™) overnight at 4° C. The plate was then washed three times with wash buffer (0.01M PBS pH 7.2, 0.05% Tween-20) and then three times with 0.01M PBS pH 7.2. The wells were then blocked by adding 200 μl of blocking buffer (1% w/v BSA in 0.01 M PBS pH 7.2) to each well and incubating the plate at 25° C. for 1 hour. The antibody was diluted in antibody diluent (1% w/v BSA, 0.05% Tween-20 in 0.01M PBS pH 7.2) sufficient to generate a titration curve. The wells were incubated with the antibody for 1 hour at 25° C. The plate was then washed as previously described. Goat anti-human immunoglobulin G (H+L) antibody HRP conjugate (Zymed®) at 1:2000 in antibody diluent was used to detect bound primary antibody. Goat anti-murine immunoglobulin antibody HRP conjugate (Dako) at 1:2000 in antibody diluent was used to detect bound murine antibody. After incubation at 25° C. for 1 hour the plate was washed again as previously described. TMB substrate solution (Zymed®) was added to each well and the colour allowed to develop; the reaction was terminated by adding 1M HCl to the wells. The absorbance of each well was determined at 450 nm (ref. 620 nm).

[6] = biological target: T2, human IL-12; experiment: ELISA, coated IL-12; remark: listed apart in the source
Method in brief: as §1

[7] = biological target: T1, human IL-23; experiment: SPR, single 81 nM analyte, scFv via FLAG
[8] = biological target: T1, human IL-23; experiment: SPR, single 81 nM analyte, scFv via FLAG; LOD about 1 × 10^-5 s^-1

B1: Antibody 51 (antibody, human IgG1, kappa, V domains shown)
VH: EVQLVQSGAEVKKPGATVKISCKASGYTFSDYYLHWVRQAPGKGLEWMGWIDPENGDTEYAPKFQGRVTITADTSTDTGYLELSSLRSEDTAVYYCAANKELRYFDVWGQGTLVTVSS
VL: DIQMTQSPSSVSASVGDRVTITCRASQSISINLHWYQQKPGKAPKLLIYFASQSISGVPSRFSGSGSGTDFSLTINSLQPEDFATYYCQQSNSFPLTFGGGTKVEIKR
binding result [1]: binds
binding result [2]: binds

B2: Antibody 3 (antibody, human IgG1, kappa, V domains shown)
VH: EVQLQQSGADLVRSGASIKLSCTASGFNIKDYYMHWVKQRPEQGLEWIGWIDPENGDTEYAPKFQGKATMTADTSSNTAYLQLSSLTSEDTAVYYCNACKELRYFDVWGAGTTVTVSS
VL: DIVLTQSPATLSVTPGDSVSLSCRASQSISINLHWYQQKSHESPRLLIKFASQSISGIPSRFSGYGSGTDFTLSINSVETEDFGRYFCQQSNSFPLTFGAGTKLELKR
notes: Antibody 1 with light chain W94F
Kd [3]: 0.0896 nM
koff [3]: 0.000111 s⁻¹
kon [3]: 1.24e+06 M⁻¹ s⁻¹
Kd [4]: 0.0438 nM
koff [4]: 9.39e-05 s⁻¹
kon [4]: 2.15e+06 M⁻¹ s⁻¹

B3: Antibody 18 (antibody, human IgG1, kappa, V domains shown)
VH: B2 VH with C99P
VL: B2 VL with F94W
binding result [5]: binds
binding result [6]: binds

B4: Antibody 20 (antibody, human IgG1, kappa, V domains shown)
VH: B2 VH with C99T
VL: B2 VL with F94W
binding result [5]: binds
binding result [6]: binds

B5: Antibody 7 (antibody, human IgG1, kappa, V domains shown)
VH: B2 VH with C99N
VL: B2 VL with F94W
notes: Antibody 1 with heavy chain C95N
Kd [3]: 0.0722 nM
koff [3]: 0.000147 s⁻¹
kon [3]: 2.03e+06 M⁻¹ s⁻¹
Kd [4]: 0.0918 nM
koff [4]: 0.000167 s⁻¹
kon [4]: 1.82e+06 M⁻¹ s⁻¹

B6: Antibody 19 (antibody, human IgG1, kappa, V domains shown)
VH: B2 VH with C99S
VL: B2 VL with F94W
binding result [5]: binds
binding result [6]: binds

B7: Antibody 4 (antibody, human IgG1, kappa, V domains shown)
VH: B2 VH with M34L
VL: B2 VL with F94W
notes: Antibody 1 with heavy chain M34L
Kd [3]: 0.127 nM
koff [3]: 0.000158 s⁻¹
kon [3]: 1.25e+06 M⁻¹ s⁻¹
Kd [4]: 0.133 nM
koff [4]: 0.000204 s⁻¹
kon [4]: 1.54e+06 M⁻¹ s⁻¹

B8: Antibody 17 (antibody, human IgG1, kappa, V domains shown)
VH: B2 VH with C99F
VL: B2 VL with F94W
binding result [5]: binds
binding result [6]: binds

B9: Antibody 22 (antibody, human IgG1, kappa, V domains shown)
VH: B2 VH with C99V
VL: B2 VL with F94W
binding result [5]: binds
binding result [6]: binds

B10: Antibody 12 (antibody, human IgG1, kappa, V domains shown)
VH: B2 VH with C99H
VL: B2 VL with F94W
binding result [5]: binds
binding result [6]: binds

Second part, the binder after the results:

binding result [5]: binds
binding result [6]: binds
B11: Antibody 13 (antibody, human IgG1, kappa, V domains shown)
VH: B2 VH with C99I
VL: B2 VL with F94W

Kd [7]: ≤ 0.032 nM
kon [7]: 230000 M⁻¹ s⁻¹
koff [8]: < 1e-05 s⁻¹
B12: scFv combo. # 1 (scFv)
scFv: QVQLVQSGAEVKKPGASVKVSCKASGYTFTDYYLHWVRQAPGRGLEWMGWIDPENGDTEHAPKFQGRVTMTTDTSTSTAYMELRSLRSDDTAVYYCNANKELRYFDVWGQGTMVTVSSGGGGSGGGGSGGGGSEIVMTQSPATLSVSPGERATLSCRASQSISINLHWYQQKPGQAPRLLIYFASQSTSGIPARFSGSGSGTEFTLTISSLQSEDFAVYYCQQSNSFPLTFGGGTKVEIKR
notes: scFv-80 with VH Q43R, Y59H; VL I55T; not shown: proprietary C-terminal FLAG tag

Kd [7]: ≤ 0.027 nM
kon [7]: 220000 M⁻¹ s⁻¹
koff [8]: < 1e-05 s⁻¹
B13: scFv combo. # 11 (scFv)
scFv: B12 scFv with R43Q, H60S, S159P, T188I
notes: scFv-80 with VH Y59S; VL S26P; not shown: proprietary C-terminal FLAG tag

Kd [7]: ≤ 0.041 nM
kon [7]: 230000 M⁻¹ s⁻¹
koff [8]: < 1e-05 s⁻¹
B14: scFv combo. # 6 (scFv)
scFv: B12 scFv with T28A, R43Q, T69S, T188I
notes: scFv-80 with VH T28A, Y59H, T68S; not shown: proprietary C-terminal FLAG tag

Kd [7]: ≤ 0.0033 nM
kon [7]: 200000 M⁻¹ s⁻¹
koff [8]: < 1e-05 s⁻¹
B15: scFv combo. # 7 (scFv)
scFv: B12 scFv with F29L, R43Q, T188I
notes: scFv-80 with VH F29L, Y59H; not shown: proprietary C-terminal FLAG tag

Kd [7]: ≤ 0.013 nM
kon [7]: 220000 M⁻¹ s⁻¹
koff [8]: < 1e-05 s⁻¹
B16: scFv combo. # 10 (scFv)
scFv: B12 scFv with T28A, R43Q, T188I
notes: scFv-80 with VH T28A, Y59H; not shown: proprietary C-terminal FLAG tag

Kd [7]: ≤ 0.0075 nM
kon [7]: 200000 M⁻¹ s⁻¹
koff [8]: < 1e-05 s⁻¹
B17: scFv combo. # 8 (scFv)
scFv: B12 scFv with F29L, R43Q, H60S, T188I
notes: scFv-80 with VH F29L, Y59S; not shown: proprietary C-terminal FLAG tag

Kd [7]: ≤ 0.034 nM
kon [7]: 230000 M⁻¹ s⁻¹
koff [8]: < 1e-05 s⁻¹
B18: scFv combo. # 2 (scFv)
scFv: B12 scFv with T28A, R43Q, H60S, T188I
notes: scFv-80 with VH T28A, Y59S; not shown: proprietary C-terminal FLAG tag

Kd [7]: ≤ 0.027 nM
kon [7]: 220000 M⁻¹ s⁻¹
koff [8]: < 1e-05 s⁻¹
B19: scFv combo. # 9 (scFv)
scFv: B12 scFv with H60S
notes: scFv-80 with VH Q43R, Y59S; VL I55T; not shown: proprietary C-terminal FLAG tag

Kd [7]: ≤ 0.016 nM
kon [7]: 220000 M⁻¹ s⁻¹
koff [8]: < 1e-05 s⁻¹
B20: scFv combo. # 12 (scFv)
scFv: B12 scFv with T28A, R43Q, H60S, T69S, T188I
notes: scFv-80 with VH T28A, Y59S, T68S; not shown: proprietary C-terminal FLAG tag
